{
  "source": "patent US20060148030A1",
  "about": "“Nuclear receptor err y 3” (FUJISAWA PHARMACEUTICAL CO., LTD, priority 2002, published 2006)",
  "target": "T1, VDR (Rattus norvegicus, UniProt P13053)",
  "T1 construct": "expressed in transfected cells; host or cells: CV-1 (African green monkey kidney)",
  "T1 sequence (P13053 1-423)": "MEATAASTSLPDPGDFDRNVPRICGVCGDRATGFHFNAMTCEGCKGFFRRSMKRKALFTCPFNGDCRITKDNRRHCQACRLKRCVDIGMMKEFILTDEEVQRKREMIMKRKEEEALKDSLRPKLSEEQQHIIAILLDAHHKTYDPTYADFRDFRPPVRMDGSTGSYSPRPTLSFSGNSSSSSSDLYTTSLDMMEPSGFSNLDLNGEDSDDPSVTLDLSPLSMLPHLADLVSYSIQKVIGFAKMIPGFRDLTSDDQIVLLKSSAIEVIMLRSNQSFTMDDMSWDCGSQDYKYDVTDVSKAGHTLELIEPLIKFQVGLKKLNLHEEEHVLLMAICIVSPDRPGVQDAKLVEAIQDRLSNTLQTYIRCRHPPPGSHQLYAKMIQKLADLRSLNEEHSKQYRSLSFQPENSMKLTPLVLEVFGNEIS",
  "T1 sequence (P19793 1-462 partner)": "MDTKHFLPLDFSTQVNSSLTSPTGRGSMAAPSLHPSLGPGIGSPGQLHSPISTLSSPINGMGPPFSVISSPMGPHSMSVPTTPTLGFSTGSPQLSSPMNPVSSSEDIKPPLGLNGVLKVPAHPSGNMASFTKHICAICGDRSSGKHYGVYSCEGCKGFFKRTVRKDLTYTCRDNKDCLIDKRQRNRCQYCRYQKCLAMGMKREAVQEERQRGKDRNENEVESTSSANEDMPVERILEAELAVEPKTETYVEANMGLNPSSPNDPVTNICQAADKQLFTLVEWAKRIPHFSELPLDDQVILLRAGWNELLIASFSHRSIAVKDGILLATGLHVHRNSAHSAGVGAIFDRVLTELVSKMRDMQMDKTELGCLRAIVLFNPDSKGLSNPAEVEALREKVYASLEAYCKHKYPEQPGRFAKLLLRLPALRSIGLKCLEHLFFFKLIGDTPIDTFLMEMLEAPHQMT",
  "assay": "Reporter gene assay, ERRγ3 coexisted with VDR, pGVP2-VDRE in CV-1 cells",
  "format": "cell-based",
  "details": "5×10^−8 M calcitriol, FIG. 23",
  "experimental": "Transfection was performed as follows: CV-1 cells were resuspended in DMEM supplemented with 10% fetal bovine serum, 2000 U/l of penicillin G, and 100 mg/l of streptomycin to a concentration of 2×10^5 cells/2.5 ml. This was then seeded to a 6-well plate at 2.5 ml per well, and incubated for 18-24 hours in a CO2 incubator at 37° C. and 5% CO2. 1 μg of each of the expression plasmids for the transcription factors, the luciferase reporter plasmid, and another luciferase reporter plasmid used for normalization of the measured values (pRL-TK), were dissolved in Opti-MEM (Gibco BRL), to a total of 150 μl. 7 μl of the transfection reagent LipofectAMINE 2000 (Gibco BRL) was diluted in 143 μl of Opti-MEM, and this was added to the mixture drop by drop while stirring. The mixture was incubated for 20 minutes. […] Luciferase activity was measured using the Dual-Luciferase™ Reporter Assay System (Promega). […] The protocol for measurement was as follows: 50 μl of Luciferase Assay Reagent II was added to each well, stirred for 0.3 seconds, and measured for one second. 50 μl of Stop&Glo™ Reagent was then added, stirred for 0.3 seconds, and measured for one second. The measured values for firefly luciferase activity were corrected by dividing by the value for the Renilla luciferase activity, the internal control. Average values and standard errors were calculated from triplicate samples. […]",
  "data": [
    {"molecule": "ERRγ3: novel ERRγ isoform, nuclear receptor protein of 396 amino acids (SEQ ID NO: 2) lacking part of the DNA binding domain (protein, listed as Homo sapiens) MSNKDRHIDSSCSSFIKTEPSSPASLTDSVNHHSPGGSSDASGSYSSTMNGHQNGLDSPPLYPSAPILGGSGPVRKLYDDCSSTIVEDPQTKCEYMLNSMPKRLCLVCGDIASGYHYGVASCEACKAFFKRTIQGVRLDRVRGGRQKYKRRIDAENSPYLNPQLAQPAKKPYNKIVSHLLVAEPEKIYAMPDPTVPDSDIKALTTLCDLADRELVVIIGWAKHIPGFSTLSLADQMSLLQSAWMEILILGVVYRSLSFEDELVYADDYIMDEDQSKLAGLLDLNNAILQLVKKYKSMKLEKEEFVTLKAIALANSDSMHIEDVEAVQKLQDVLHEALQDYEAGQHMEDPRRAGKMLMTLPLLRQTSTKAVQHFYNIKLEGKVPMHKLFLEMLEAKV", "values": [
      {"measurement": "modifying effect on the transcriptional stimulation activity of VDR", "result": "did not show a significant modifying effect"}
    ]}
  ]
}
